# According to patent US10335470B2, “Immunogenic compositions comprising progastrin and uses thereof” (Board of Regents, The University of Texas System, priority 2006, dated 2019):
# T1: CCK2R (Rattus norvegicus, UniProt P30553)
# T1 construct: endogenous in cells; host or cells: AR42J cells
# T1 sequence (P30553 1-452): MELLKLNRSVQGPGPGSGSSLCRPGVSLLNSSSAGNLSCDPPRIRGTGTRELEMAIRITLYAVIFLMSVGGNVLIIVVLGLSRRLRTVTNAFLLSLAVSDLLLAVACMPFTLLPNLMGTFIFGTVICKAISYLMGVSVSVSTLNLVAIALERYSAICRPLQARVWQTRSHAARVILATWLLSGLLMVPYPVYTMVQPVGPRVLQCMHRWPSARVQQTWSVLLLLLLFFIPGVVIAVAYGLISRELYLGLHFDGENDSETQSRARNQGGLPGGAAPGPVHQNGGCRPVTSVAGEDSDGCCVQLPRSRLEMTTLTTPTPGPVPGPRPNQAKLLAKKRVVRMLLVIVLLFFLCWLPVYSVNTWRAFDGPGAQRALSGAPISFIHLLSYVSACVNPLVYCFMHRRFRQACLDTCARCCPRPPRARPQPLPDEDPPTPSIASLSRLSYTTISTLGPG
# Experiments:
# [1] = molecular target: T2, specific binding sites for rhPG (Annexin II) (Rattus norvegicus, UniProt Q07936); experiment: Displacement of 125I-rhPG binding to AR42J and IEC cells; conditions: 1.0 nM 125I-rhPG
# T2 construct: endogenous in cells; host or cells: AR42J cells; IEC cells
# T2 sequence (Q07936 2-339 limits assumed): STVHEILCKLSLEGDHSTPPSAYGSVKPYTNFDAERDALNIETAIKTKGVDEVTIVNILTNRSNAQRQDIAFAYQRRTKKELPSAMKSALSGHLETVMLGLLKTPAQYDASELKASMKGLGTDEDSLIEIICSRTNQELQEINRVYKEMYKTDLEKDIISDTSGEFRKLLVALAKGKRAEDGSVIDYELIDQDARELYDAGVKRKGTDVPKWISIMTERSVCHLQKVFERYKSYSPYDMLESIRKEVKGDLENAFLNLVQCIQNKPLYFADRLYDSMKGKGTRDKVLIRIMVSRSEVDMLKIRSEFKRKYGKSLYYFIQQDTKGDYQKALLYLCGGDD
# Experimental: FIGS. 8A-8C show binding of ^125I-rhPG and ^125I-BH-CCK8 to a pancreatic cancer cell line, AR42J and intestinal epithelial cells (IEC). […] The relative binding affinity of the gastrin like peptides for the specific binding sites for rhPG (FIGS. 8A and B) (Annexin II) and CCK8 (FIG. 8C) to CCK2R was calculated. Data in each point represents the mean values of triplicate measurements from a single experiment and is representative of 2 similar experiments. The intra-experimental variation for each data point was <5-10%. The nM concentration of each peptide used is presented in a log-scale on the x-axis; the excess unlabeled peptide used for displacing the binding of the radio labeled ligand is presented in parentheses. The % loss in the relative binding of the radio labeled ligand in the presence of the increasing concentrations of the indicated non-labeled peptide is presented on the y-axis. IEC cells lack CCK2R binding sites and therefore binding with radio-labeled CCK8 was not examined with these cells.
# The full-length recombinant human PG1-80 (rhPG) was generated in an E. coli expression system and purified and confirmed as described previously (Singh et al, 2003). rhPG was radio labeled with Na ^125I (Amersham, Chicago, Ill.), and the intact ^125I-rhPG purified by HPLC as described previously (Singh et al, 2003). For these experiments, AR42J cells were expanded in vitro in […] and grown to subconfluence in the growth medium containing 10% FCS. […] The binding data was analyzed by a Scatchard plot as described previously (Singh et al, 1995). […]
# In order to define the RBA of various peptides for the PG binding sites on the cells, cells in suspension were incubated with 1.0 nM ^125I-rhPG in the presence or absence of increasing concentrations (0.1 nM-10.0 μM) of either the homologous or heterologous peptide. Non-specific binding was determined in the presence of 1000× excess of the non-labeled homologous peptide. […] Cell pellets were counted for ^125I in a gamma counter with ˜70% efficiency for ^125I. […]
# [2] = system: aberrant crypt foci in PS21 (Fabp-PG) mice; experiment: Aberrant crypt foci in response to AOM in immunized PS21 Fabp-PG transgenic mice; type: in vivo, mouse; conditions: immunized PS21 mice vs wild type mice
# Experimental: Aberrant crypt forci (ACFs) are pre-neoplastic markers of colon carcinogenesis and represent dysplastic growth of colonic crypts, which is the earliest stage of pre-cancerous changes in the colonic mucosa as described in detail previously (Singh et al, 2000b). […] These mice were immunized with either thioredoxin, or the progastrin peptide alone or the fusion protein (FP) which contained thioredoxin and progastrin.
# All injections were administered subcutaneously. […] The ACFs were then counted.
# progastrin = experiment: Anti-progastrin antibody titers in immunized mice (solid phase ELISA); type: in vivo, mouse; conditions: for anti-PG-antibody titers: PS21 transgenic and WT mice, CFA/IFA, s.c. day 1, 21, 42
# thioredoxin = conditions: all mouse groups (WT and PS21)
# Chain of thioredoxin (P0AA25 whole entry): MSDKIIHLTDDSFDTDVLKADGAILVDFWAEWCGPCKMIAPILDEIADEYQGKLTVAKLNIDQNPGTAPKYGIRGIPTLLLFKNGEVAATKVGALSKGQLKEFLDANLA
# Description: Briefly, transgenic mice expressing human progastrin (PS21) and wild type mice were divided into 3 groups and immunized with (a) recombinant thioredoxin, (b) a recombinant fusion protein where human progastrin was fused with thioredoxin and recombinant progastrin, all proteins were expressed in E. coli and purified from cell extract. Each protein was emulsified using CFA/IFA (Sigma) as an adjuvant. The mice that received vaccine emulsified using CFA on day 1 followed by two subsequent immunization using IFA on day 21 and day 42. All injections were administered subcutaneously. Mice were bled and serum prepared to estimate the titers once a week for 3 weeks, 15 days after the final immunization.
# The antibody tires in serum were determined by solid phase ELISA using limiting dilution method. Briefly, 96 wells PVC ELISA plates (Falcon) were coated with 3 different recombinant protein expressed in E. coli that were used to vaccinate mice i.e. recombinant thioredoxin, Thioredoxin-PG fusion protein and recombinant PG. Recombinant proteins were dissolved in carbonate buffer pH 9.0 and coated at a concentration of 50 μg/50 μl/well. The plates were incubated overnight at 4° C. Following day the plates were flipped and the well were blocked with 100 μl 2% non fat dry milk (NFDM) and plated were incubated at 37° C. for 3-4 hours. […] The ELISA plated were them read in plate reader at 490 nm.
# [3] = system: intestinal epithelial cells (IEC), colon cancer cells and pancreatic cancer cells; conditions: cited from earlier work
# CCK2R = molecular target: T1, CCK2R; experiment: Displacement of 125I-BH-CCK8 binding to AR42J cells
# Experimental: Cells were incubated with the indicated radio labeled ligand in the presence or absence of increasing concentrations of either CCK8, G17 or rhPG. The relative binding affinity of the gastrin like peptides for the specific binding sites for rhPG (FIGS. 8A and B) (Annexin II) and CCK8 (FIG. 8C) to CCK2R was calculated.
# In a few experiments, ^125I-Bolton Hunter-CCK-8 (Amersham Biosciences, Piscataway, N.J.) was used as the radiolabeled ligand and the RBA of gastrin like peptides for displacing the binding of ^125I-BH-CCK8 to AR42J cells examined by our published methods (Singh et al, 1995).
# [4] = system: colon tumors in FVB/N mice; experiment: AOM-induced colon carcinogenesis in immunized FVB/N mice; type: in vivo, mouse; conditions: 6 months after AOM, vs adjuvant alone
# Description: (§1) FIGS. 6A-6C show immune response induced by hPG-fusion protein (FP) immunogen in different mouse models. […] The immunized Balb/c mice were inoculated with mouse CA cells at week 10 and sacrificed at week 14 and the tumors in the mice were weighed. Control mice received adjuvant alone. The weight of the tumors is indicated by an arrow against Ab titer of each mouse in mgs. Tumor weights from 3 of 6 animals are presented. […] FIGS. 6B and 6C show effect of vaccination with rhPG-FP immunogen on colon carcinogenesis in FVB/N mice. FVB/N mice were immunized with the hPG-fusion protein (FP) immunogen by 3-4 weekly injections and the PG-Ab titers were measured as described for the Balb/c mice. Once the mice developed significant PG-Ab titers, the mice were treated with azoxymethane (AOM) and the total number and size of tumors measured after 6 months of AOM treatment. The number of tumors (FIG. 6B) and the tumor burden (FIG. 6C) is presented herein. *=p<0.05 vs control values. Control mice were immunized with adjuvant alone.
# (§2) Since autocrine and endocrine PG might be playing an important role in colon carcinogenesis, the possibility of using an rhPG fusion protein as an immunogen for treatment purposes was examined. Briefly, the rhPG fusion protein (FP) was used as an immunogen in Balb/C, FVB/N and FABP-PG mice. […]
# [5] = system: mouse colon cancer (CA) cells; experiment: Growth of mouse colon cancer (CA) cells in immunized Balb/c mice; type: in vivo; conditions: CA cells inoculated at week 10, sacrificed week 14, control adjuvant alone, listed as hPG-immunogen
# Description: as §1, §2
molecule,measurement,setting,value
"CCK: cholecystokinin (CCK-8), amidated peptide closely related to gastrin",displacement of binding of radio-labeled rhPG / binding affinity for PG binding sites,[1],negligible binding affinity
G17: 17 amino acid C-terminally amidated gastrin peptide,displacement of binding of radio-labeled rhPG / binding affinity for PG binding sites,[1],negligible binding affinity
"thioredoxin: recombinant bacterial thioredoxin carrier protein expressed in E. coli, used alone as immunogen [reference compound]",development of ACF in response to AOM,[2],significantly enhanced
same,anti-PG-antibody titers,progastrin,not effective at all
same,anti-thioredoxin-antibody titers,thioredoxin,significant titers
"PG: full-length recombinant human progastrin PG1-80, 80 amino acids (SEQ ID NO:3), generated in E. coli (protein, sequence of progastrin peptide expressed by recombinant expression vector) SWKPRSQQPDAPLGTGANRDLELPWLEQQGPASHHRRQLGPQGPPHLVADPSKKQGPWLEEEEEAYGWMDFGRRSAEDEN",development of ACF in response to AOM,[2],significantly enhanced
same,displacement of binding of radio-labeled rhPG / binding affinity for PG binding sites,[1],dose-dependently displaced
same,growth factor-like effects on cells,[3],potent growth factor-like effects
same,displacement of binding of 125I-BH-CCK8 to CCK2R,CCK2R,largely ineffective
same,anti-PG-antibody titers,progastrin,much less effective
same,anti-PG-antibody titers,progastrin; listed as PG peptide,much lower levels
"rhPG fusion protein (FP): full length human progastrin protein fused with carrier protein thioredoxin (from bacteria), expressed in E. coli, used as immunogen (protein, left off: large carriers; small tags and cut ends, full length human progastrin protein fused with carrier protein thioredoxin (from bacteria), expressed in E. coli, used as immunogen) SWKPRSQQPDAPLGTGANRDLELPWLEQQGPASHHRRQLGPQGPPHLVADPSKKQGPWLEEEEEAYGWMDFGRRSAEDEN",development of ACF in response to AOM,[2],complete attenuation
same,total number of tumors,[4],significantly (p<0.05) reduced
same,tumor burden/mouse,[4],significantly (p<0.05) reduced
same,CA tumor weights reduced compared to control mice,[5],15-30%
same,titers of specific anti-hPG-Abs,"progastrin; Balb/C, FVB/N and FABP-PG mice, within 4-8 weeks of vaccination",very high titers
same,"generation of PG antibodies, FP vs PG alone",progastrin; PS21 mice,2 fold
same,anti-PG-antibody titers,progastrin,2 fold to much higher titers
same,anti-PG-antibody titers,progastrin; listed as progastrin fusion protein,strong response
